± gives the standard deviation of the averaged measurements.
How the values were obtained:
MCF7 = assay: percentage of EdU-negative (G0-arrested) nuclei per well, 72 h; higher = more G0 arrest; details: reference: sequence is the full UniProt precursor, the tested protein was the secreted form or ectodomain
hTERT-HMEC = assay: as above; details: reference: sequence is the full UniProt precursor, the tested protein was the secreted form or ectodomain
[1] = protein concentration 0.0225 µM
[2] = protein concentration 0.00725 µM
[3] = protein concentration 0.0725 µM
[4] = protein concentration 0.015525 µM
[5] = protein concentration 0.15525 µM
[6] = protein concentration 0.0191429 µM
[7] = protein concentration 0.191429 µM
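Also: secreted proteins added to cultured cells, EdU pulse at the end, nuclei found by Hoechst imaging, EdU status from nuclear versus surrounding ring intensity ratio, PBS as neutral control.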

MRPLLVLLLLGLAAGSPPLDDNKIPSLCPGHPGLPGTPGHHGSQGLPGRDGRDGRDGAPGAPGEKGEGGRPGLPGPRGDPGPRGEAGPAGPTGPAGECSVPPRSAFSAKRSESRVPPPSDAPLPFDRVLVNEQGHYDAVTGKFTCQVPGVYYFAVHATVYRASLQFDLVKNGESIASFFQFFGGWPKPASLSGGAMVRLEPEDQVWVQVGVGDYIGIYASIKTDSTFSGFLVYSDWHSSPVFA [Q9BXJ0]
percentage of EdU-negative (MCF7; [1]): 23.7 ± 0.35%
percentage of EdU-negative (MCF7; protein concentration 0.225 µM): 24.3 ± 0.42%
percentage of EdU-negative (hTERT-HMEC; [1]): 5.51 ± 0.91%
percentage of EdU-negative (hTERT-HMEC; protein concentration 0.225 µM): 6.26 ± 0.1%

MRPPACWWLLAPPALLALLTCSLAFGLASEDTKKEVKQSQDLEKSGISRKNDIDLKGIVFVIQSQSNSFHAKRAEQLKKSILKQAADLTQELPSVLLLHQLAKQEGAWTILPLLPHFSVTYSRNSSWIFFCEEETRIQIPKLLETLRRYDPSKEWFLGKALHDEEATIIHHYAFSENPTVFKYPDFAAGWALSIPLVNKLTKRLKSESLKSDFTIDLKHEIALYIWDKGGGPPLTPVPEFCTNDVDFYCATTFHSFLPLCRKPVKKKDIFVAVKTCKKFHGDRIPIVKQTWESQASLIEYYSDYTENSIPTVDLGIPNTDRGHCGKTFAILERFLNRSQDKTAWLVIVDDDTLISISRLQHLLSCYDSGEPVFLGERYGYGLGTGGYSYITGGGGMVFSREAVRRLLASKCRCYSNDAPDDMVLGMCFSGLGIPVTHSPLFHQARPVDYPKDYLSHQVPISFHKHWNIDPVKVYFTWLAPSDEDKARQETQKGFREEL [Q6Y288]
percentage of EdU-negative (MCF7; [1]): 23.9 ± 0.6%
percentage of EdU-negative (MCF7; protein concentration 0.225 µM): 28.2 ± 2.5%
percentage of EdU-negative (hTERT-HMEC; [1]): 4.96 ± 0.058%
percentage of EdU-negative (hTERT-HMEC; protein concentration 0.225 µM): 9.95 ± 0.45%

MRPPGFRNFLLLASSLLFAGLSAVPQSFSPSLRSWPGAACRLSRAESERRCRAPGQPPGAALCHGRGRCDCGVCICHVTEPGMFFGPLCECHEWVCETYDGSTCAGHGKCDCGKCKCDQGWYGDACQYPTNCDLTKKKSNQMCKNSQDIICSNAGTCHCGRCKCDNSDGSGLVYGKFCECDDRECIDDETEEICGGHGKCYCGNCYCKAGWHGDKCEFQCDITPWESKRRCTSPDGKICSNRGTCVCGECTCHDVDPTGDWGDIHGDTCECDERDCRAVYDRYSDDFCSGHGQCNCGRCDCKAGWYGKKCEHPQSCTLSAEESIRKCQGSSDLPCSGRGKCECGKCTCYPPGDRRVYGKTCECDDRRCEDLDGVVCGGHGTCSCGRCVCERGWFGKLCQHPRKCNMTEEQSKNLCESADGILCSGKGSCHCGKCICSAEEWYISGEFCDCDDRDCDKHDGLICTGNGICSCGNCECWDGWNGNACEIWLGSEYP
percentage of EdU-negative (MCF7; [2]): 26.1 ± 1.1%
percentage of EdU-negative (MCF7; [3]): 24.7 ± 1.8%
percentage of EdU-negative (hTERT-HMEC; [2]): 4.34 ± 0.65%
percentage of EdU-negative (hTERT-HMEC; [3]): 6.33 ± 0.52%

MRPPQCLLHTPSLASPLLLLLLWLLGGGVGAEGREDAELLVTVRGGRLRGIRLKTPGGPVSAFLGIPFAEPPMGPRRFLPPEPKQPWSGVVDATTFQSVCYQYVDTLYPGFEGTEMWNPNRELSEDCLYLNVWTPYPRPTSPTPVLVWIYGGGFYSGASSLDVYDGRFLVQAERTVLVSMNYRVGAFGFLALPGSREAPGNVGLLDQRLALQWVQENVAAFGGDPTSVTLFGESAGAASVGMHLLSPPSRGLFHRAVLQSGAPNGPWATVGMGEARRRATQLAHLVGCPPGGTGGNDTELVACLRTRPAQVLVNHEWHVLPQESVFRFSFVPVVDGDFLSDTPEALINAGDFHGLQVLVGVVKDEGSYFLVYGAPGFSKDNESLISRAEFLAGVRVGVPQVSDLAAEAVVLHYTDWLHPEDPARLREALSDVVGDHNVVCPVAQLAGRLAAQGARVYAYVFEHRASTLSWPLWMGVPHGYEIEFIFGIPLDPSRNYTAEEKIFAQRLMRYWANFARTGDPNEPRDPKAPQWPPYTAGAQQYVSLDLRPLEVRRGLRAQACAFWNRFLPKLLSATDTLDEAERQWKAEFHRWSSYMVHWKNQFDHYSKQDRCSDL
percentage of EdU-negative (MCF7; [2]): 25.5 ± 3.2%
percentage of EdU-negative (MCF7; [3]): 27.8 ± 2.5%
percentage of EdU-negative (hTERT-HMEC; [2]): 4.96 ± 0.24%
percentage of EdU-negative (hTERT-HMEC; [3]): 8.871 ± 0.06%

MRPQELPRLAFPLLLLLLLLLPPPPCPAHSATRFDPTWESLDARQLPAWFDQAKFGIFIHWGVFSVPSFGSEWFWWYWQKEKIPKYVEFMKDNYPPSFKYEDFGPLFTAKFFNANQWADIFQASGAKYIVLTSKHHEGFTLWGSEYSWNWNAIDEGPKRDIVKELEVAIRNRTDLRFGLYYSLFEWFHPLFLEDESSSFHKRQFPVSKTLPELYELVNNYQPEVLWSDGDGGAPDQYWNSTGFLAWLYNESPVRGTVVTNDRWGAGSICKHGGFYTCSDRYNPGHLLPHKWENCMTIDKLSWGYRREAGISDYLTIEELVKQLVETVSCGGNLLMNIGPTLDGTISVVFEERLRQMGSWLKVNGEAIYETHTWRSQNDTVTPDVWYTSKPKEKLVYAIFLKWPTSGQLFLGHPKAILGATEVKLLGHGQPLNWISLEQNGIMVELPQLTIHQMPCKWGWALALTNVI [Q9BTY2]
percentage of EdU-negative (MCF7; [4]): 22.7 ± 0.71%
percentage of EdU-negative (MCF7; [5]): 27.2 ± 2.1%
percentage of EdU-negative (hTERT-HMEC; [4]): 4.67 ± 0.2%
percentage of EdU-negative (hTERT-HMEC; [5]): 5.55 ± 0.98%

MRPQGPAASPQRLRGLLLLLLLQLPAPSSASEIPKGKQKAQLRQREVVDLYNGMCLQGPAGVPGRDGSPGANGIPGTPGIPGRDGFKGEKGECLRESFEESWTPNYKQCSWSSLNYGIDLGKIAECTFTKMRSNSALRVLFSGSLRLKCRNACCQRWYFTFNGAECSGPLPIEAIIYLDQGSPEMNSTINIHRTSSVEGLCEGIGAGLVDVAIWVGTCSDYPKGDASTGWNSVSRIIIEELPK [Q96CG8]
percentage of EdU-negative (MCF7; [1]): 25.9 ± 1.8%
percentage of EdU-negative (MCF7; protein concentration 0.225 µM): 22.2 ± 3.5%
percentage of EdU-negative (hTERT-HMEC; [1]): 5.305 ± 0.023%
percentage of EdU-negative (hTERT-HMEC; protein concentration 0.225 µM): 4.81 ± 1.6%

MRPRLWLLLAAQLTVLHGNSVLQQTPAYIKVQTNKMVMLSCEAKISLSNMRIYWLRQRQAPSSDSHHEFLALWDSAKGTIHGEEVEQEKIAVFRDASRFILNLTSVKPEDSGIYFCMIVGSPELTFGKGTQLSVVDFLPTTAQPTKKSTLKKRVCRLPRPETQKGPLCSPITLGLLVAGVLVLLVSLGVAIHLCCRRRRARLRFMKQFYK
percentage of EdU-negative (MCF7; [6]): 27.8 ± 0.56%
percentage of EdU-negative (MCF7; [7]): 28.7 ± 0.39%
percentage of EdU-negative (hTERT-HMEC; [6]): 5.15 ± 0.17%
percentage of EdU-negative (hTERT-HMEC; [7]): 4.67 ± 0.05%

From the supplement of paper PMC11316812
